Assay results from patent US8889621B2, “Inhibiting binding of FGF23 to the binary FGFR-Klotho complex for the treatment of hypophosphatemia” (New York University, priority 2009, dated 2014).
Entries after “also recorded” stand apart in the source; their conditions may differ.

Molecular target: T1, FGFR1c-βKlotho-FGF21 (UniProt P11362+Q99N32)
T1 construct: the ectodomain of murine βKlotho (F53 to L995) was expressed in HEK293 cells; FLAG (C); made in house; host or cells: E. coli (FGFR1c, FGF21); HEK293 (βKlotho ectodomain)
T1 sequence (P11362 142-365): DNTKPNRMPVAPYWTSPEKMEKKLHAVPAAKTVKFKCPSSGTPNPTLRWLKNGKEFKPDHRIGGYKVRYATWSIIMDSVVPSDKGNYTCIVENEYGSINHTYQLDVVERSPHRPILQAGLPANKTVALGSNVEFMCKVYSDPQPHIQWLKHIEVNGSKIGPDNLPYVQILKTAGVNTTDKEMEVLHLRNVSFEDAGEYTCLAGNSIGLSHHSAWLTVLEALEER
T1 sequence (Q99N32 53-995): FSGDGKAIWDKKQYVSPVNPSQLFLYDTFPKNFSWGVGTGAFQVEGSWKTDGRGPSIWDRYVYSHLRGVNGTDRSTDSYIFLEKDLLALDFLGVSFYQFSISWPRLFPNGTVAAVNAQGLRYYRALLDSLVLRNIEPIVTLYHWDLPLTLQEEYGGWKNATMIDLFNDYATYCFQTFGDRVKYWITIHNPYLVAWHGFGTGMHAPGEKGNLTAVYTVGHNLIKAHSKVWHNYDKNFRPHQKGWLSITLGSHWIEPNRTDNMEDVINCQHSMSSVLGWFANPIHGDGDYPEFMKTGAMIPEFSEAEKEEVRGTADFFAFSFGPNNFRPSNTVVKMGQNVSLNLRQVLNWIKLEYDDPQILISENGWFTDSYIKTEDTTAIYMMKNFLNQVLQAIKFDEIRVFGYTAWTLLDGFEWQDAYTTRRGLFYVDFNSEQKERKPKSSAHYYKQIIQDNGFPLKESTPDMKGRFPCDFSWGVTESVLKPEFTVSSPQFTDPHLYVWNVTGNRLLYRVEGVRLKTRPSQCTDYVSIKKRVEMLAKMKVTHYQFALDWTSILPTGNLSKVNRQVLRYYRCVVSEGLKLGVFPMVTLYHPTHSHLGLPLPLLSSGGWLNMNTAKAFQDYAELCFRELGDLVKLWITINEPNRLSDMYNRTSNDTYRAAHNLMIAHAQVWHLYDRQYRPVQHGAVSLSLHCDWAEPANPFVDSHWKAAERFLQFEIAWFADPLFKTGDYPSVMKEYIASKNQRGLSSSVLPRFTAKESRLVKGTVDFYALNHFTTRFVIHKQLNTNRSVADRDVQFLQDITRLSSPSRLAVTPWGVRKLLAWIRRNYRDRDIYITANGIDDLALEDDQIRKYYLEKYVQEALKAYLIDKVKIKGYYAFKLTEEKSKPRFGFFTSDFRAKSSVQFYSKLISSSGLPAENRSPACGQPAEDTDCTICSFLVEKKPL
Assay: SPR specificity: FGFR1c-βKlotho binding to immobilized FGF21^29-209
Design: species or system human FGFR1c, murine βKlotho, human FGF21
Conditions: 10-fold molar excess over FGFR1c-βKlotho

B1: FGF23^180-251: 72-amino acid C-terminal tail of human FGF23 (S180 to I251), expressed in E. coli (protein, listed as Homo sapiens)
chain: SAEDDSERDPLNVLKPRARMTPAPASCSQELPSAEDNSPMASDPLGVVRGGRVNTHAGGTGPEGCRPFAKFI
- inhibition of FGFR1c-βKlotho binding to immobilized FGF21: did not affect; also recorded: no inhibition
